For data set [1], the system named is MDA MB 435 cells. Put plainly: Apoptosis induction in carcinoma cells (cross-linked IgG, 16-24 hours, Annexin V/PI). Type of data set: cell-based, human. The conditions noted are these: MDA MB 435, cross-linked IgG. The method, then:
The prostate carcinoma cell line PC-3 was grown in Complete Growth Medium (RPMI 1640, supplemented with 10% FCS, 10 mM HEPES, and 2 mM L-Glutamine) to 80% confluency in a 6 well plate. The prostate carcinoma cell line DU145 was grown in MEM with Earl's salts, supplemented with 10% FCS, 1 mM sodium pyruvate, and 1 mM non-essential amino acids and the derivate of a melanoma cell line MDA MB 435 was grown in DMEM supplemented with 10% FCS.
For apoptosis assays cells were washed in PBS and serially diluted B11 IgG1 (or B1 IgG1, Trastuzumab or negative antibody control for controls) was added to individual wells and binding was allowed during a 1-2 h incubation at 4° C. The cells were washed and Complete Growth Medium was added, containing cross-linking antibody, Fab′2 Goat anti-Human Fab′2, at 10 μg/ml. Cells were incubated in a humidified atmosphere, with 5% CO2 at 37° C., for 16-24 hours. Cells were collected by trypsination and stained with Alexa Fluor 488-Annexin V (AF488-AV) and propidium iodide (PI), according to manufacturer's instructions. The percentage apoptotic cells was determined by the formula: % apoptotic cells=100−% AF488−AV/PI−/−.
Cells were seeded in 6 well plates with Complete Growth Medium three days before the onset of the experiment.

The test system of data set [2] is T cells. Put plainly: T cell proliferation (CFSE). Type of data set: cell-based, human. The conditions noted are these: immobilized (air-dried or wet coated) or in solution. The method, then:
(FIG. 23F) Antibody induced T-cell proliferation. CFSE-labeled T-cells were incubated with BI-505, isotype control IgG or anti-CD3 (okt-3) IgG hyperimmobilised to cell culture plates by air-drying “A” or wet-coating “W”. Cells were cultured for 6 days, and T cell proliferation was monitored by flow-cytometry as decreased CFSE signals.
Cytokine release and T cell proliferation are thought to be common causes of mild and severe adverse reactions to antibody therapy. In order to further investigate any undesirable effects of BI-505 on ICAM-1 expressing immune cells, we therefore assessed putative effects of BI-505 on peripheral blood mononuclear cell (PBMC) cytokine release and T cell proliferation. In order to maximize the chances of identifying any PBMC-agonistic properties of BI-505, we used two different antibody-coating protocols in which the antibody was hyper-cross-linked as previously described (Stebbings et al., 2007).
T cells used in the proliferation assay were stained with CFSE (carboxyfluorescein diacetate, succinimidyl ester; Invitrogen). The CFSE-labeled cells were seeded at a density of 150,000 cells/well in wet and air-dried antibody-coated plates. The cells were cultured for 6 days with one renewal of medium after 3 days. AccuCheck Count Beads (Invitrogen) were used to ensure accurate quantification of cell proliferation in the flow cytometry. […]

B1: B11: fully human IgG1 antibody specific for ICAM-1; VH and VL sequences of FIG. 10 (SEQ ID NOs. 6 and 8) (antibody, listed as Homo sapiens, V domains shown)
VH: EVQLLESGGGLVQPGGSLRLSCAASGFTFSNAWMSWVRQAPGKGLEWVAFIWYDGSNKYYADSVKGRFTISRDNSKNTLYLQMNSLRAEDTAVYYCARYSGWYFDYWGQGTLVTVSS
VL: QSVLTQPPSASGTPGQRVTISCTGSSSNIGAGYDVHWYQQLPGTAPKLLIYDNNNRPSGVPDRFSGSKSGTSASLAISGLRSEDEADYYCQSYDSSLSAWLFGGGTKLTVLG
With B1, the “Apoptosis Induction” value in data set [1] was “induce apoptosis”. Also, in data set [2], the “T cell proliferation” value is given as “did not induce T cell proliferation”.

These data come from patent US9803013B2, “Biological materials and uses thereof” (BioInvent International AB, priority 2005, dated 2017).
